What was measured:
[1] = molecular target: T1, Flag-mCherry-ColErw-Cys-6His (Pectobacterium carotovorum); test: EIA 8 plex n° 1: colicin coated at 100 nM, Im-RLuc8 alone at 100 nM, luciferase signal
[2] = molecular target: T2, Flag-mCherry-ColKhan-Cys-6His (Photorhabdus khanii); test: EIA 8 plex n° 1: colicin coated at 100 nM, Im-RLuc8 alone at 100 nM, luciferase signal (FIG. 3, light grey bars)
[3] = molecular target: T2, Flag-mCherry-ColKhan-Cys-6His; test: EIA 8 plex n° 2: colicin coated at 100 nM, Im-RLuc8 alone at 100 nM, luciferase signal (FIG. 4, light grey bars)
[4] = molecular target: T3, Flag-EmGFP-ColE2-6His (Escherichia coli); test: EIA 8 plex n° 1: colicin coated at 100 nM, Im-RLuc8 at 100 nM, luminescence; light bar alone, dark bar with the 7 other unfused Im proteins
T3 construct: Coated on the plate or sprayed on the membrane; also called Colicin E2

[5] = molecular target: T4, Flag-EmGFP-ColE7-6His (Escherichia coli); test: as above
T4 construct: also called Colicin E7

[6] = molecular target: T5, Flag-mCherry-ColE8-6His (Escherichia coli); test: as above
T5 construct: also called Colicin E8

[7] = molecular target: T6, Flag-mCherry-ColE9-6His (Escherichia coli); test: as above
T6 construct: also called Colicin E9

[8] = molecular target: T7, Flag-mCherry-ColAP41-Cys-6His (Pseudomonas aeruginosa AP41); test: as above
[9] = molecular target: T8, Flag-mCherry-ColSyr-Cys-6His (Pseudomonas syringae B728A); test: as above
[10] = molecular target: T9, Flag-mCherry-ColLeaf-Cys-6His (Pseudomonas sp Leaf83); test: EIA 8 plex n° 2: colicin coated at 100 nM, Im-RLuc8 at 100 nM, luminescence; light bar alone, dark bar with the 7 other unfused Im proteins
[11] = molecular target: T9, Flag-mCherry-ColLeaf-Cys-6His; test: EIA 8 plex n° 2: colicin coated at 100 nM, Im-RLuc8 alone at 100 nM, luciferase signal (FIG. 4, light grey bars)
[12] = molecular target: T3, Flag-EmGFP-ColE2-6His; test: EIA 8 plex n° 2: colicin coated at 100 nM, Im-RLuc8 at 100 nM, luminescence; light bar alone, dark bar with the 7 other unfused Im proteins
[13] = molecular target: T6, Flag-mCherry-ColE9-6His; test: as above
[14] = molecular target: T7, Flag-mCherry-ColAP41-Cys-6His; test: as above
[15] = molecular target: T8, Flag-mCherry-ColSyr-Cys-6His; test: as above
[16] = molecular target: T1, Flag-mCherry-ColErw-Cys-6His; test: as above
[17] = molecular target: T2, Flag-mCherry-ColKhan-Cys-6His; test: as above
[18] = molecular target: T4, Flag-EmGFP-ColE7-6His; test: EIA 8 plex n° 1: colicin coated at 100 nM, Im-RLuc8 alone at 100 nM, luciferase signal
[19] = molecular target: T8, Flag-mCherry-ColSyr-Cys-6His; test: EIA 8 plex n° 1: colicin coated at 100 nM, Im-RLuc8 alone at 100 nM, luciferase signal (FIG. 3, light grey bars)
[20] = molecular target: T8, Flag-mCherry-ColSyr-Cys-6His; test: EIA 8 plex n° 2: colicin coated at 100 nM, Im-RLuc8 alone at 100 nM, luciferase signal (FIG. 4, light grey bars)
[21] = molecular target: T1, Flag-mCherry-ColErw-Cys-6His; test: EIA 8 plex n° 1: colicin coated at 100 nM, Im-RLuc8 at 100 nM, luminescence; light bar alone, dark bar with the 7 other unfused Im proteins
[22] = molecular target: T1, Flag-mCherry-ColErw-Cys-6His; test: EIA 8 plex n° 1: colicin coated at 100 nM, Im-RLuc8 alone at 100 nM, luciferase signal (FIG. 3, light grey bars)
[23] = molecular target: T1, Flag-mCherry-ColErw-Cys-6His; test: EIA 8 plex n° 2: colicin coated at 100 nM, Im-RLuc8 alone at 100 nM, luciferase signal (FIG. 4, light grey bars)
[24] = molecular target: T2, Flag-mCherry-ColKhan-Cys-6His; test: EIA 8 plex n° 1: colicin coated at 100 nM, Im-RLuc8 at 100 nM, luminescence; light bar alone, dark bar with the 7 other unfused Im proteins

Binder | binding result [4] | binding result [5] | binding result [6] | binding result [7] | binding result [8] | binding result [9] | binding result [10] | binding result [17] | further results
Avitag-RLuc8-ImKhan-6His (other, Immunity protein fused to the luciferase RLuc8 as reporter; added in solution; also called ImKhan-Rluc8; ImKahn) MGLNDIFEAQKIEWHEGGSGGSGGSASKVYDPEQRKRMITGPQWWARCKQMNVLDSFINYYDSEKHAENAVIFLHGNATSSYLWRHVVPHIEPVARCIIPDLIGMGKSGKSGNGSYRLLDHYKYLTAWFELLNLPKKIIFVGHDWGAALAFHYAYEHQDRIKAIVHMESVVDVIESWDEWPDIEEDIALIKSEEGEKMVLENNFFVETVLPSKIMRKLEPEEFAAYLEPFKEKGEVRRPTLSWPREIPLVKGGKPDVVQIVRNYNAYLRASDDLPKLFIESDPGFFSNAIVEGAKKFPNTEFVKVKGLHFLQEDAPDEMGKYIKSFVERVLKNEQGGGSTAGGGGSELKNKLEDYTEAEFLSLLNKIWAVDVSEEEHDNLIDHFEKLSEHPNGNGLIFYPENGVEDSPEGVLKVIKEWRAKNGKPGFKKLEGGGSHHHHHH | no binding (tested: 100 nM) | no binding (tested: 100 nM) | no binding (tested: 100 nM) | no binding (tested: 100 nM) | no binding (tested: 100 nM) | no binding (tested: 100 nM) | no binding (tested: 100 nM) | – | RLU [1]: > 100000 RLU; RLU [2]: > 2e+06 RLU; RLU [3]: > 2.4e+06 RLU
Avitag-RLuc8-ImLeaf-6His (other, Immunity protein fused to the luciferase RLuc8 as reporter; added in solution; also called ImLeaf-Rluc8) MGLNDIFEAQKIEWHEGGSGGSGGSASKVYDPEQRKRMITGPQWWARCKQMNVLDSFINYYDSEKHAENAVIFLHGNATSSYLWRHVVPHIEPVARCIIPDLIGMGKSGKSGNGSYRLLDHYKYLTAWFELLNLPKKIIFVGHDWGAALAFHYAYEHQDRIKAIVHMESVVDVIESWDEWPDIEEDIALIKSEEGEKMVLENNFFVETVLPSKIMRKLEPEEFAAYLEPFKEKGEVRRPTLSWPREIPLVKGGKPDVVQIVRNYNAYLRASDDLPKLFIESDPGFFSNAIVEGAKKFPNTEFVKVKGLHFLQEDAPDEMGKYIKSFVERVLKNEQGGGSTAGGGGSKRQFADYTEAEFIAFMEDIFRENEAETDDRLDVLLDQFREITGHPDGTDLIYYCESDAECTPERITQKVKSWRAANGLPGFKSTLEGGGSHHHHHH | – | – | – | – | – | – | – | no binding (tested: 100 nM) | RLU [11]: > 2.4e+06 RLU; binding result [12]: no binding (tested: 100 nM); binding result [13]: no binding (tested: 100 nM); binding result [14]: no binding (tested: 100 nM); binding result [15]: no binding (tested: 100 nM); binding result [16]: no binding (tested: 100 nM)
Myc-RLuc8-ImSyr-Avitag-6His (other, Immunity protein fused to the luciferase RLuc8 as reporter; added in solution; also called ImSyr-Rluc8) MGGEQKLISEEDLGGSASKVYDPEQRKRMITGPQWWARCKQMNVLDSFINYYDSEKHAENAVIFLHGNATSSYLWRHVVPHIEPVARCIIPDLIGMGKSGKSGNGSYRLLDHYKYLTAWFELLNLPKKIIFVGHDWGAALAFHYAYEHQDRIKAIVHMESVVDVIESWDEWPDIEEDIALIKSEEGEKMVLENNFFVETVLPSKIMRKLEPEEFAAYLEPFKEKGEVRRPTLSWPREIPLVKGGKPDVVQIVRNYNAYLRASDDLPKLFIESDPGFFSNAIVEGAKKFPNTEFVKVKGLHFLQEDAPDEMGKYIKSFVERVLKNEQKLPGGSIFKEKIEDYTEEEFLEFLKGLSSEYSQLHGDEFIKHMDRSVEHFVKITEHPAQTDVIFYPEEGQEDTPEGILKVIKEWRAKNGKPGFKSGGSGGSGLNDIFEAQKIEWHELEGGGSHHHHHH | no binding (tested: 100 nM) | – | no binding (tested: 100 nM) | no binding (tested: 100 nM) | – | – | no binding (tested: 100 nM) | no binding (tested: 100 nM) | RLU [18]: > 100000 RLU; RLU [19]: > 2e+06 RLU; RLU [20]: > 2.4e+06 RLU; binding result [21]: no binding (tested: 100 nM)
Myc-RLuc8-ImErw-Avitag-6His (other, Immunity protein fused to the luciferase RLuc8 as reporter; added in solution; also called ImErw-Rluc8) MGGEQKLISEEDLGGSASKVYDPEQRKRMITGPQWWARCKQMNVLDSFINYYDSEKHAENAVIFLHGNATSSYLWRHVVPHIEPVARCIIPDLIGMGKSGKSGNGSYRLLDHYKYLTAWFELLNLPKKIIFVGHDWGAALAFHYAYEHQDRIKAIVHMESVVDVIESWDEWPDIEEDIALIKSEEGEKMVLENNFFVETVLPSKIMRKLEPEEFAAYLEPFKEKGEVRRPTLSWPREIPLVKGGKPDVVQIVRNYNAYLRASDDLPKLFIESDPGFFSNAIVEGAKKFPNTEFVKVKGLHFLQEDAPDEMGKYIKSFVERVLKNEQKLPGGSNLKEKLEDYTEAEFISYLKEFFDNPMGLRGKELETHLDSLVEHFDKIVFHPEGNGLIFYPPDERDDSPEGVLNEIKRWRKSQGLPLFKDSKGGSGGSGLNDIFEAQKIEWHELEGGGSHHHHHH | no binding (tested: 100 nM) | no binding (tested: 100 nM) | no binding (tested: 100 nM) | no binding (tested: 100 nM) | no binding (tested: 100 nM) | no binding (tested: 100 nM) | no binding (tested: 100 nM) | – | RLU [22]: > 2e+06 RLU; RLU [23]: > 2.4e+06 RLU; binding result [24]: binds
